{
  "source": "patent US20170224799A1",
  "about": "(UNIVERSITY OF CONNECTICUT, published 2017)",
  "data": [
    {"target": "T1, H-2 D^d (mouse, UniProt P01900 25-311, limits assumed)", "T1 construct": "construct not described", "T1 sequence (MHC heavy, looked up)": "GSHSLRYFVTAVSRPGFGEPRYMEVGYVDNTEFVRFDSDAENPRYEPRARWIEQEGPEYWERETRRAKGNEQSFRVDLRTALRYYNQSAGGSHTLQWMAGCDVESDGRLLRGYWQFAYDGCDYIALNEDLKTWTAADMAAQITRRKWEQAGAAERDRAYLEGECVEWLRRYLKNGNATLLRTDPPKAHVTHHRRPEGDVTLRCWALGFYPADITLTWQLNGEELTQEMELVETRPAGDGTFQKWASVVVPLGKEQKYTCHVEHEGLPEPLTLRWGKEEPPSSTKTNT", "assay": "direct peptide-binding studies", "values": [
      {"binder": "DYVPMEQPR", "note": "[Alkbh6.2 Mut peptide DYVPMEQPR]", "binding result": "no binding"},
      {"binder": "ALKSEEKTL", "note": "[Stau1.4 Mut peptide ALKSEEKTL]", "binding result": "no binding"},
      {"binder": "GFHGCIHEVL", "note": "[Slit3 Mut peptide GFHGCIHEVL]", "binding result": "no binding"},
      {"binder": "QVFPGLMEL", "note": "[Atxn10.1 Mut peptide QVFPGLMEL]", "binding result": "no binding"},
      {"binder": "VFPGLMEL", "note": "[Atxn10.2 Mut peptide VFPGLMEL]", "binding result": "no binding"},
      {"binder": "ELQGLLEDEL", "note": "[Ccdc136 Mut peptide ELQGLLEDEL]", "binding result": "no binding"}
    ]},
    {"target": "T2, H-2 L^d (mouse, UniProt P01897 25-309, limits assumed)", "T2 construct": "construct not described", "T2 sequence (MHC heavy, looked up)": "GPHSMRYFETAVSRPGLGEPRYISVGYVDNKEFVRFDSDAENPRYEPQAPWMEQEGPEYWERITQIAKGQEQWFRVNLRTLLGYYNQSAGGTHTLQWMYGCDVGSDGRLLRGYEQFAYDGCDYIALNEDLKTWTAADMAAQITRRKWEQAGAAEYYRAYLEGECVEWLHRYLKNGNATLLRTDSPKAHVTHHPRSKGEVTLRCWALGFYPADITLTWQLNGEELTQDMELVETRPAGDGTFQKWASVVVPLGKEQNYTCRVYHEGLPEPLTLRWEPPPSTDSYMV", "assay": "direct peptide-binding studies", "values": [
      {"binder": "DYVPMEQPR", "note": "[Alkbh6.2 Mut peptide DYVPMEQPR]", "binding result": "no binding"},
      {"binder": "ALKSEEKTL", "note": "[Stau1.4 Mut peptide ALKSEEKTL]", "binding result": "no binding"},
      {"binder": "GFHGCIHEVL", "note": "[Slit3 Mut peptide GFHGCIHEVL]", "binding result": "no binding"},
      {"binder": "QVFPGLMEL", "note": "[Atxn10.1 Mut peptide QVFPGLMEL]", "binding result": "no binding"},
      {"binder": "VFPGLMEL", "note": "[Atxn10.2 Mut peptide VFPGLMEL]", "binding result": "no binding"},
      {"binder": "ELQGLLEDEL", "note": "[Ccdc136 Mut peptide ELQGLLEDEL]", "binding result": "no binding"}
    ]},
    {"target": "H-2 K^d (mouse, UniProt P01902 22-305)", "sequence (P01902 22-305)": "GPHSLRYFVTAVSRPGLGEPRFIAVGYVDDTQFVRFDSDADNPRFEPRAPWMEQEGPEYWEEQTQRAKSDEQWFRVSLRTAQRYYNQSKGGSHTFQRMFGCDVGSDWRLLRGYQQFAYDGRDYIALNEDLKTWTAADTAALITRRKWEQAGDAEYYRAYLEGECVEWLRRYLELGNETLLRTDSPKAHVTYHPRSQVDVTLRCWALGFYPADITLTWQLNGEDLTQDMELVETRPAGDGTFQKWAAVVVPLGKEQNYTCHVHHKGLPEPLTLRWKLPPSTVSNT", "assay": "competition with radiolabeled standard peptide, purified H-2 K^d", "units": {"IC50": "nM"}, "values": [
      {"binder": "EYLDLQTQG", "note": "[Zfp236.2 Mut peptide EYLDLQTQG]", "IC50": 10000},
      {"binder": "SYMLQALCIP", "note": "[Tnpo3.3 Mut peptide SYMLQALCIP]", "IC50": 67},
      {"binder": "LDMLQALCIP", "note": "[Tnpo3.3 WT peptide LDMLQALCIP]", "IC50": 111},
      {"binder": "SYMLQALC", "note": "[Tnpo3.4 Mut peptide SYMLQALC]", "IC50": 14900},
      {"binder": "LDMLQALC", "note": "[Tnpo3.4 WT peptide LDMLQALC]", "IC50": 89}
    ]}
  ]
}
